Assay results published in paper PMC5986797 (2018).

What was measured:
Assay in all cases: ELISA
[1] = biological target: T1, laminin peptide LAMA5_(3539–3550) (Homo sapiens (Human), UniProt O15230)
T1 chain: TLPDVGLELEVR

[2] = biological target: T2, laminin peptide LAMA4_(1521–1543) (Homo sapiens (Human), UniProt Q16363)
T2 chain: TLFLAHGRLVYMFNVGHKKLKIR

[3] = biological target: T3, laminin peptide LAMA3_(3043–3067) (Homo sapiens (Human), UniProt Q16787)
T3 chain: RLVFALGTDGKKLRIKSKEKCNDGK

[4] = biological target: T4, laminin peptide LAMA4_(1408–1434) (Homo sapiens (Human), UniProt Q16363)
T4 chain: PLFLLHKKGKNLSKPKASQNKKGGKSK

[5] = biological target: T5, laminin peptide LAMA5_(3300–3330) (Homo sapiens (Human), UniProt O15230)
T5 chain: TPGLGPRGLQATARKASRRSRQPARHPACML

[6] = biological target: T6, laminin peptide LAMA5_(3417–3436) (Homo sapiens (Human), UniProt O15230)
T6 chain: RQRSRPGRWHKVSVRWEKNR

| Binder | binding result [1] | binding result [2] | binding result [3] | binding result [4] | binding result [5] | binding result [6] |
| --- | --- | --- | --- | --- | --- | --- |
| recombinant human syndecan-4 (protein) ESIRETEVIDPQDLLEGRYFSGALPDDEDVVGPGQESDDFELSGSGDLDDLEDSMIGPEVVHPLVPLDNHIPERAGSGSQVPTEPKKLEENEVIPKRISPVEESEDVSNKVSMSSTVQGSNIFERTE | no binding | binds | binds | binds | binds | binds |
| recombinant human syndecan-1 (protein) QIVATNLPPEDQDGSGDDSDNFSGSGAGALQDITLSQQTPSTWKDTQLLTAIPTSPEPTGLEATAASTSTLPAGEGPKEGEAVVLPEVEPGLTAREQEATPRPRETTQLPTTHLASTTTATTAQEPATSHPHRDMQPGHHETSTPAGPSQADLHTPHTEDGGPSATERAAEDGASSQLPAAEGSGEQDFTFETSGENTAVVAVEPDRRNQSPVDQGATGASQGLLDRKEVLG | no binding | binds | binds | binds | binds | binds |
| recombinant human syndecan-2 (protein) ESRAELTSDKDMYLDNSSIEEASGVYPIDDDDYASASGSGADEDVESPELTTSRPLPKILLTSAAPKVETTTLNIQNKIPAQTKSPEETDKEKVHLSDSERKMDPAEEDTNVYTEKHSDSLFKRTE | no binding | binds | binds | binds | binds | binds |
